# According to patent US20190382475:
# Substitutions are numbered along the chain they refer to. Numbers in names are those of the source.
# B1: anti c-Kit Fab light chain Q38D/Q124K/K169D (protein)
# chain: DIQMTQSPSSLSASVGDRVTITCRASQSISSYLNWYQDKPGKAPKLLIYYTSRLQSGVPSRFSGSGSGTDFTLTISSLQPEDFATYYCQQGRRLWSFGGGTKVEIKRTVAAPSVFIFPPSDEKLKSGTASVVCLLNNFYPREAKVQWKVDNALQSGNSQESVTEQDSDDSTYSLSSTLTLSKADYEKHKVYACEVTHQGLSSPVTKSFNRGEC
# B2: anti c-Kit Fab light chain Q38/Q124/K169D (protein)
# chain: B1 chain with D38Q, K123Q
# B3: anti c-Kit Fab light chain Q38/Q124D/K169 (protein)
# chain: B1 chain with D38Q, K123D, D168K
# B4: anti c-Kit Fab light chain Q38K/Q124/K169 (protein)
# chain: B1 chain with D38K, K123Q, D168K
# B5: anti c-Kit Fab light chain Q38/Q124/K169 (wild type) (protein)
# chain: B1 chain with D38Q, K123Q, D168K
# B6: anti c-Kit Fab light chain Q38D/Q124/K169 (protein)
# chain: B1 chain with K123Q, D168K
# B7: anti c-Kit Fab light chain Q38K/Q124D/K169 (protein)
# chain: B1 chain with D38K, K123D, D168K
# B8: anti c-Kit Fab light chain Q38/Q124K/K169D (protein)
# chain: B1 chain with D38Q
# B9: anti c-Kit Fab light chain Q38D/Q124K/K169 (protein)
# chain: B1 chain with D168K
# B10: anti c-Kit Fab light chain Q38/Q124K/K169 (protein)
# chain: B1 chain with D38Q, D168K
# B11: anti c-Kit Fab light chain Q38D/Q124/K169D (protein)
# chain: B1 chain with K123Q
# What was measured:
# Test in all cases: LC-UV-ESI-MS of purified Fab after co-expression of two heavy and two light chains in HEK293T (chain competition); competing chains not named
# [1] = target: anti c-Kit Fab heavy chain Q39K/K147D/S165R
# [2] = target: anti c-Kit Fab heavy chain Q39/K147/S165R
# [3] = target: anti c-Kit Fab heavy chain Q39/K147/S165 (wild type)
# [4] = target: anti c-Kit Fab heavy chain Q39/K147/S165D
# [5] = target: anti c-Kit Fab heavy chain Q39D/K147/S165
# [6] = target: anti c-Kit Fab heavy chain Q39D/K147/S165D
# [7] = target: anti c-Kit Fab heavy chain Q39K/K147/S165
# [8] = target: anti c-Kit Fab heavy chain Q39/K147D/S165R
# [9] = target: anti c-Kit Fab heavy chain Q39K/K147D/S165
# [10] = target: anti c-Kit Fab heavy chain Q39/K147D/S165
# [11] = target: anti c-Kit Fab heavy chain Q39K/K147/S165R
protein,measurement,setting,value
B1,Correct pairing (%),[1],100%
B2,Correct pairing (%),[2],68%
B3,Correct pairing (%),[3],91%
same,Correct pairing (%),[4],88%
B4,Correct pairing (%),[5],95%
same,Correct pairing (%),[6],95%
B5,Correct pairing (%),[3],63%
same,Correct pairing (%),[4],87%
B6,Correct pairing (%),[7],74%
B7,Correct pairing (%),[5],93%
same,Correct pairing (%),[6],100%
B8,Correct pairing (%),[8],90%
B9,Correct pairing (%),[9],95%
B10,Correct pairing (%),[10],91%
B11,Correct pairing (%),[11],75%
